The supplement of paper PMC9112550, “Optimization of the antimicrobial peptide Bac7 by deep mutational scanning” (BMC Biology, 2022)

System: Escherichia coli TOP10
Experiment: shrunken log2 fold change of peptide-encoding DNA abundance (4.5 h post-induction vs induction); higher = less antimicrobial activity (less host growth inhibition)
Details: time post-induction: 4.5 h; library: site-saturation at positions 5, 18, 19, 20
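Also: peptides expressed intracellularly from a pBAD plasmid library in pooled LB shake-flask culture, induced with 0.3% L-arabinose, DNA abundance read by NGS, three biological replicates, DESeq2 with apeglm shrinkage.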

Sequence	shrunken log2 fold change
RRIRTRPPRLPRPRPRPHADPRP	0.0427
RRIRTRPPRLPRPRPRPHAFPRP	-0.128
RRIRTRPPRLPRPRPRPHAMPRP	-0.31
RRIRTRPPRLPRPRPRPHDEPRP	0.00408
RRIRTRPPRLPRPRPRPHDLPRP	-0.0128
RRIRTRPPRLPRPRPRPHDPPRP	-0.283
RRIRTRPPRLPRPRPRPHGCPRP	0.14
RRIRTRPPRLPRPRPRPHHKPRP	-0.614
RRIRTRPPRLPRPRPRPHHQPRP	-0.272
RRIRTRPPRLPRPRPRPHKQPRP	-0.148
RRIRTRPPRLPRPRPRPHKSPRP	0.119
RRIRTRPPRLPRPRPRPHMTPRP	-0.265
RRIRTRPPRLPRPRPRPHNIPRP	-0.455
RRIRTRPPRLPRPRPRPHNMPRP	-0.651
RRIRTRPPRLPRPRPRPHNQPRP	-0.369
RRIRTRPPRLPRPRPRPHQDPRP	-0.245
RRIRTRPPRLPRPRPRPHQKPRP	-0.127
RRIRTRPPRLPRPRPRPHQNPRP	-0.253
RRIRTRPPRLPRPRPRPHRHPRP	-0.211
RRIRTRPPRLPRPRPRPHRKPRP	-0.0762
RRIRTRPPRLPRPRPRPHRLPRP	-0.387
RRIRTRPPRLPRPRPRPHSDPRP	-0.00801
RRIRTRPPRLPRPRPRPHSRPRP	0.0646
RRIRTRPPRLPRPRPRPHTNPRP	0.0124
RRIRTRPPRLPRPRPRPHWKPRP	0.00556

Sequence	shrunken log2 fold change
RRIRTRPPRLPRPRPRPHYSPRP	-0.0429
RRIRTRPPRLPRPRPRPIAEPRP	0.0307
RRIRTRPPRLPRPRPRPIAVPRP	-0.213
RRIRTRPPRLPRPRPRPICEPRP	0.0143
RRIRTRPPRLPRPRPRPICWPRP	-0.13
RRIRTRPPRLPRPRPRPIDLPRP	-1.07
RRIRTRPPRLPRPRPRPIDMPRP	0.00748
RRIRTRPPRLPRPRPRPIELPRP	-0.0636
RRIRTRPPRLPRPRPRPIETPRP	0.108
RRIRTRPPRLPRPRPRPIFMPRP	0.0645
RRIRTRPPRLPRPRPRPIGMPRP	0.0258
RRIRTRPPRLPRPRPRPIIYPRP	-0.216
RRIRTRPPRLPRPRPRPIKSPRP	-0.61
RRIRTRPPRLPRPRPRPILRPRP	-0.0606
RRIRTRPPRLPRPRPRPINAPRP	-0.175
RRIRTRPPRLPRPRPRPINLPRP	-0.156
RRIRTRPPRLPRPRPRPIQAPRP	0.232
RRIRTRPPRLPRPRPRPIRRPRP	0.0581
RRIRTRPPRLPRPRPRPISEPRP	0.00252
RRIRTRPPRLPRPRPRPITFPRP	-0.108
RRIRTRPPRLPRPRPRPITMPRP	-0.595
RRIRTRPPRLPRPRPRPITVPRP	-0.154
RRIRTRPPRLPRPRPRPIVWPRP	-0.0862
RRIRTRPPRLPRPRPRPKAKPRP	-0.0262
RRIRTRPPRLPRPRPRPKAMPRP	0.0836

Sequence	shrunken log2 fold change
RRIRTRPPRLPRPRPRPKANPRP	-0.00404
RRIRTRPPRLPRPRPRPKAQPRP	-0.0875
RRIRTRPPRLPRPRPRPKCSPRP	-0.0669
RRIRTRPPRLPRPRPRPKCYPRP	-0.0601
RRIRTRPPRLPRPRPRPKFPPRP	-0.0959
RRIRTRPPRLPRPRPRPKFSPRP	-0.189
RRIRTRPPRLPRPRPRPKHMPRP	-0.081
RRIRTRPPRLPRPRPRPKKCPRP	-0.0193
RRIRTRPPRLPRPRPRPKKDPRP	-0.147
RRIRTRPPRLPRPRPRPKMEPRP	-0.0203
RRIRTRPPRLPRPRPRPKMRPRP	0.0419
RRIRTRPPRLPRPRPRPKPHPRP	0.0899
RRIRTRPPRLPRPRPRPKQKPRP	-0.203
RRIRTRPPRLPRPRPRPKSLPRP	-0.291
RRIRTRPPRLPRPRPRPKSTPRP	0.0437
RRIRTRPPRLPRPRPRPKSVPRP	-0.0225
RRIRTRPPRLPRPRPRPKWHPRP	-0.0752
RRIRTRPPRLPRPRPRPKWKPRP	-0.0786
RRIRTRPPRLPRPRPRPKWRPRP	0.394
RRIRTRPPRLPRPRPRPKYHPRP	-0.243
RRIRTRPPRLPRPRPRPLAYPRP	-0.982
RRIRTRPPRLPRPRPRPLCAPRP	0.0615
RRIRTRPPRLPRPRPRPLCDPRP	-0.714
RRIRTRPPRLPRPRPRPLCHPRP	-0.175
RRIRTRPPRLPRPRPRPLECPRP	-0.0489

Sequence	shrunken log2 fold change
RRIRTRPPRLPRPRPRPLEHPRP	0.104
RRIRTRPPRLPRPRPRPLEIPRP	0.554
RRIRTRPPRLPRPRPRPLESPRP	-0.0663
RRIRTRPPRLPRPRPRPLEWPRP	0.178
RRIRTRPPRLPRPRPRPLGCPRP	0.0809
RRIRTRPPRLPRPRPRPLGLPRP	0.207
RRIRTRPPRLPRPRPRPLGSPRP	0.0751
RRIRTRPPRLPRPRPRPLGTPRP	-0.145
RRIRTRPPRLPRPRPRPLHHPRP	-0.494
RRIRTRPPRLPRPRPRPLHYPRP	-0.592
RRIRTRPPRLPRPRPRPLIVPRP	-0.438
RRIRTRPPRLPRPRPRPLKNPRP	-0.397
RRIRTRPPRLPRPRPRPLKRPRP	-0.236
RRIRTRPPRLPRPRPRPLLFPRP	-0.181
RRIRTRPPRLPRPRPRPLMEPRP	0.0859
RRIRTRPPRLPRPRPRPLMMPRP	-0.314
RRIRTRPPRLPRPRPRPLMTPRP	0.0717
RRIRTRPPRLPRPRPRPLNAPRP	-0.264
RRIRTRPPRLPRPRPRPLPCPRP	0.0112
RRIRTRPPRLPRPRPRPLQEPRP	0.0814
RRIRTRPPRLPRPRPRPLQGPRP	0.12
RRIRTRPPRLPRPRPRPLQPPRP	0.161
RRIRTRPPRLPRPRPRPLQTPRP	-0.00743
RRIRTRPPRLPRPRPRPLRYPRP	-0.255
RRIRTRPPRLPRPRPRPLTLPRP	-0.241

Sequence	shrunken log2 fold change
RRIRTRPPRLPRPRPRPLTWPRP	-0.174
RRIRTRPPRLPRPRPRPLWAPRP	0.277
RRIRTRPPRLPRPRPRPLWRPRP	0.00366
RRIRTRPPRLPRPRPRPLYGPRP	0.0411
RRIRTRPPRLPRPRPRPLYNPRP	-0.715
RRIRTRPPRLPRPRPRPLYPPRP	-0.154
RRIRTRPPRLPRPRPRPMAIPRP	-0.00284
RRIRTRPPRLPRPRPRPMCDPRP	0.0157
RRIRTRPPRLPRPRPRPMCEPRP	0.0422
RRIRTRPPRLPRPRPRPMCNPRP	-0.249
RRIRTRPPRLPRPRPRPMCPPRP	-0.017
RRIRTRPPRLPRPRPRPMDHPRP	-0.31
RRIRTRPPRLPRPRPRPMDSPRP	-0.0716
RRIRTRPPRLPRPRPRPMDTPRP	0.0257
RRIRTRPPRLPRPRPRPMDVPRP	-0.303
RRIRTRPPRLPRPRPRPMEEPRP	-0.25
RRIRTRPPRLPRPRPRPMFNPRP	-0.643
RRIRTRPPRLPRPRPRPMGQPRP	0.103
RRIRTRPPRLPRPRPRPMHCPRP	-0.235
RRIRTRPPRLPRPRPRPMHKPRP	-0.271
RRIRTRPPRLPRPRPRPMHNPRP	-0.503
RRIRTRPPRLPRPRPRPMHPPRP	0.0402
RRIRTRPPRLPRPRPRPMHRPRP	-0.142
RRIRTRPPRLPRPRPRPMHVPRP	-0.0197
RRIRTRPPRLPRPRPRPMIIPRP	-0.0854

Sequence	shrunken log2 fold change
RRIRTRPPRLPRPRPRPMLPPRP	-0.0543
RRIRTRPPRLPRPRPRPMMIPRP	0.000458
RRIRTRPPRLPRPRPRPMMTPRP	0.0356
RRIRTRPPRLPRPRPRPMNNPRP	-0.582
RRIRTRPPRLPRPRPRPMQCPRP	-0.00968
RRIRTRPPRLPRPRPRPMQWPRP	0.0688
RRIRTRPPRLPRPRPRPMRGPRP	-0.0594
RRIRTRPPRLPRPRPRPMRMPRP	0.162
RRIRTRPPRLPRPRPRPMSEPRP	-0.00136
RRIRTRPPRLPRPRPRPMSLPRP	-0.147
RRIRTRPPRLPRPRPRPMTGPRP	0.17
RRIRTRPPRLPRPRPRPMVPPRP	-0.0651
RRIRTRPPRLPRPRPRPMVRPRP	-0.0017
RRIRTRPPRLPRPRPRPNCFPRP	-0.0362
RRIRTRPPRLPRPRPRPNDNPRP	-0.739
RRIRTRPPRLPRPRPRPNDWPRP	-0.385
RRIRTRPPRLPRPRPRPNEKPRP	-0.144
RRIRTRPPRLPRPRPRPNEQPRP	-0.0135
RRIRTRPPRLPRPRPRPNETPRP	0.0139
RRIRTRPPRLPRPRPRPNFNPRP	-0.356
RRIRTRPPRLPRPRPRPNFSPRP	0.059
RRIRTRPPRLPRPRPRPNIIPRP	-1.01
RRIRTRPPRLPRPRPRPNIKPRP	-0.828
RRIRTRPPRLPRPRPRPNKDPRP	-0.54
RRIRTRPPRLPRPRPRPNKNPRP	-0.156
